Measured values taken from patent publication US20030040094A1.

Tests used:
[1] = target: bovine aorta ATPDase type II (78 KDa catalytic unit) (bovine) (UniProt O18956); assay: precipitation with lectin-agarose, elution with Me-alpha-D-mannopyranoside
[2] = target: bovine aorta ATPDase type II (78 KDa catalytic unit) (bovine) (UniProt O18956); assay: precipitation of ADPase activity with lectin-agarose
[3] = target: bovine aorta ATPDase type II (78 KDa catalytic unit) (bovine) (UniProt O18956); assay: precipitation with lectin-agarose, elution with D-GlcNAc

Chain of UniProt O18956 (O18956 whole entry, form in doubt): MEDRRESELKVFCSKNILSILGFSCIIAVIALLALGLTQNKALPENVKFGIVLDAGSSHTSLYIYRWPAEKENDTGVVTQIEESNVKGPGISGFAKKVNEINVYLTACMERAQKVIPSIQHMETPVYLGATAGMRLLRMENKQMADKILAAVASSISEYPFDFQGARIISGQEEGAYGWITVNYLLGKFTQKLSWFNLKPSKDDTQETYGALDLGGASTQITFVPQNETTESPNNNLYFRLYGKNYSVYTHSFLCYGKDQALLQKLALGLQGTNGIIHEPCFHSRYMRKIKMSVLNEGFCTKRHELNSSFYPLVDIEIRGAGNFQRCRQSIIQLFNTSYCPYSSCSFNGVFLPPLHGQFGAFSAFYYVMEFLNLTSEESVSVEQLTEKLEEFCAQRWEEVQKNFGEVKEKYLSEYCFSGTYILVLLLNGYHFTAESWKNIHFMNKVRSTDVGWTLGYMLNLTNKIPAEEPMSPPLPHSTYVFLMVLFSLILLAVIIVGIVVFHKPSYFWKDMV

Relative ADPase activity, Eluted fraction [1]	Relative ADPase activity, Bound fraction [2]	Relative ADPase activity, Supernatant (unbound) fraction [2]	Relative ADPase activity, Eluted fraction [3]	Substance
62%	95%	5%	–	Con A conjugated to agarose (from UniProt P02866)
–	95%	5%	69%	WGA conjugated to agarose (from UniProt P10968 27-197)
